Laboratory results from PMC5740175.

Assays:
[1] = tested on: IRP1 (iron regulatory protein 1); experiment: EMSA; conditions: 25 mM Tris/HCl pH 7.4, 40 mM KCl, 1% Triton X-100, protease inhibitor (EDTA-free), 200 ng IRP1, 100 ng labeled probe, 15 min room temperature, then 50 ng …
[2] = tested on: IRP1 (iron regulatory protein 1); experiment: competition EMSA; conditions: 25 mM Tris/HCl pH 7.4, 40 mM KCl, 1% Triton X-100, protease inhibitor (EDTA-free); 200 ng IRP1, 100 ng labeled probe; 15 min room temperature, then 50 ng …

Substance	binding signal (% of WT bound) ([1]; direct, 75% decrease, mean of 4, heparin)	Kd [2] [nM]	binding signal (% of WT bound) [1]	binding signal (% of WT bound) ([1]; direct, minimal binding, reduction of almost 95%, mean of 4, heparin)
FTL 5' IRE Ghent +49A>G	25	2.7	–	–
FTL 5' IRE WT	–	0.5	100	–
FTL 5' IRE +39ΔC	–	–	–	5
